What all share (assay): SPR (BIAcore 3000), mAb 1B7 immobilised on CM5 chip, toxin injected
Background: Surface plasmon resonance follows binding to a sensor surface in real time, without labels.

The target of test [1] is T1, PTx-S1-220 (truncated PTx-S1, residues 1-220, strain Tohama I, variant B) (Bordetella pertussis, UniProt P04977 35-254).
T1 construct: also called WT PTx-S1-220; PTx-S1B
T1 sequence: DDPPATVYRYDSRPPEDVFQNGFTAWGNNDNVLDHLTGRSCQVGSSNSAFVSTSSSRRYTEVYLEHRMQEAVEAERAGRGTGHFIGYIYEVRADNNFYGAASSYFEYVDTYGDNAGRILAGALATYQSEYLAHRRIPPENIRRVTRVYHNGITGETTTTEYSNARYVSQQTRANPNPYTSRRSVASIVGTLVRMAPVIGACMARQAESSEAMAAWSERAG

For another test, the target named is T2, PTx-S1-220 R146A (Bordetella pertussis, UniProt P04977 35-254).
T2 chain: T1 sequence with R146A

The target in another test is T3, PTx-S1-220 T156A (Bordetella pertussis, UniProt P04977 35-254).
T3 chain: T1 sequence with T156A

Another test has as its target T4, PTx-S1-220 E16A (Bordetella pertussis, UniProt P04977 35-254).
T4 chain: T1 sequence with E16A

The target in a further test is T5, PTx-S1-220 R39A (Bordetella pertussis, UniProt P04977 35-254).
T5 chain: T1 sequence with R39A

The next test addresses T6, PTx-S1-220 T153A (Bordetella pertussis, UniProt P04977 35-254).
T6 chain: T1 sequence with T153A

The target of another test is T7, PTx-S1-220 H83A (Bordetella pertussis, UniProt P04977 35-254).
T7 chain: T1 sequence with H83A

For the next test, the target named is T8, PTx-S1-220 Y148A (Bordetella pertussis, UniProt P04977 35-254).
T8 chain: T1 sequence with Y148A

The target in another test is T9, PTx-S1-220 N150A (Bordetella pertussis, UniProt P04977 35-254).
T9 chain: T1 sequence with N150A

Where a chain is given by its changes, count along the chain named.

B1: murine monoclonal antibody 1B7 (antibody, V domains shown)
VH: EVQLQQSGSELVRPGASVKLSCKASGYKFTSYWMHWVKQRPGQGLEWIGNIFPGSGSTNYDEKFNSKATLTVDTSSNTAYMQLSSLTSEDSAVYYCTRWLSGAYFDYWGQGTTLTVSS
VL: DIQMTQSPALMSASPGEKVTMTCSASSSVSFMYWYQQKPRSSPKPWIYLTSNLPSGVPARFSGSGSGTSYSLTISSMEAEDAATYYCQQWSSHPPTFGSGTKLEIKR
notes: also called mAb 1B7; 1B7 mAb
As usually defined, the koff is the first-order rate constant of dissociation. Low readings indicate a long-lived complex, high ones a short-lived complex. For B1, the koff in test [1] came out at 0.0014 s⁻¹; with PTx-S1-220 R146A, 0.0015 s⁻¹; with PTx-S1-220 T156A it was 0.0011 s⁻¹; with PTx-S1-220 E16A, 0.0016 s⁻¹; with PTx-S1-220 R39A it was 0.003 s⁻¹; in the test with PTx-S1-220 T153A it was 0.002 s⁻¹. For the same molecule, the koff with PTx-S1-220 H83A was determined as 0.01 s⁻¹; in the test with PTx-S1-220 Y148A, 0.029 s⁻¹; in the test with PTx-S1-220 N150A, 0.008 s⁻¹.

For the origin of these results see US20140193401A1 (published 2014).
